According to patent CN113583115A (YANG SHENG TANG CO LTD; UNIV XIAMEN, dated 2021):

How the values were obtained:
SARS-CoV-2受体结合区RBD-His蛋白 [1] = target: T1, SARS-CoV-2受体结合区RBD-His蛋白 (SARS-CoV-2, UniProt P0DTC2 316-550); assay: indirect ELISA, RBD-His coated at 2 μg/mL, HRP goat anti-human IgG
T1 construct: range 316-550

SARS-CoV-2受体结合区RBD-His蛋白 [2] = target: T1, SARS-CoV-2受体结合区RBD-His蛋白
[3] = target: SARS-CoV-2 Sde18截短蛋白 (假病毒SARS-CoV2 VSVpp所携带) (SARS-CoV-2, UniProt P0DTC2 14-1255); assay: cell-based or functional assay
SARS-CoV-2受体结合区RBD-mFc = target: T2, SARS-CoV-2受体结合区RBD-mFc (SARS-CoV-2, UniProt P0DTC2 319-541); assay: indirect ELISA, RBD-mFc coated at 2 μg/mL, HRP goat anti-rabbit IgG
T2 construct: domain: 受体结合区RBD

B1: 3F4人源化抗体 (VH SEQ ID NO:15 + VL SEQ ID NO:19) (antibody, V domains shown)
VH: EVQLVESGGGLVQPGGSLRLSCAASGFSLSSYWMSWVRQAPGKGLEWVSIIFTGGSTYYASWAKGRFTISRHNSKNTLYLQMNSLRAEDTAVYYCARTSYYDVSGWGVGRLDLWGQGTLVTVSS
VL: DIQMTQSPSTLSASVGDRVTITCQSSQSVYDNNWLGWYQQKPGKAPKLLIYSASTLASGVPSRFSGSGSGTEFTLTISSLQPDDFATYYCAGGYSGNIFAFGQGTKLEILR
B1: binds (SARS-CoV-2受体结合区RBD-His蛋白 [1]).

B2: 3F4人源化抗体 (VH SEQ ID NO:18 + VL SEQ ID NO:19) (antibody, V domains shown)
VH: EVQLVESGGGLVQPGGSLRLSCTVSGFSLSSYWMSWVRQAPGKGLEWVSIIFTGGSTYYASWAKGRFTISRHNSKNTLYLQMNSLRAEDTAVYYCARTSYYDVSGWGVGRLDLWGQGTLVTVSS
VL: DIQMTQSPSTLSASVGDRVTITCQSSQSVYDNNWLGWYQQKPGKAPKLLIYSASTLASGVPSRFSGSGSGTEFTLTISSLQPDDFATYYCAGGYSGNIFAFGQGTKLEILR
B2: binds (SARS-CoV-2受体结合区RBD-His蛋白 [1]).

B3: 3F4人源化抗体 (VH SEQ ID NO:17 + VL SEQ ID NO:19) (antibody, V domains shown)
VH: EVQLVESGGGLVQPGGSLRLSCAASGFSLSSYWMSWVRQAPGKGLEWVSIIFTGGSTYYASWAKGRFTISRHNSKNTLYLQMNSLRAEDTATYFCARTSYYDVSGWGVGRLDLWGQGTLVTVSS
VL: DIQMTQSPSTLSASVGDRVTITCQSSQSVYDNNWLGWYQQKPGKAPKLLIYSASTLASGVPSRFSGSGSGTEFTLTISSLQPDDFATYYCAGGYSGNIFAFGQGTKLEILR
B3: binds (SARS-CoV-2受体结合区RBD-His蛋白 [1]).

B4: 3F4人源化抗体 (VH SEQ ID NO:16 + VL SEQ ID NO:19) (antibody, V domains shown)
VH: EVQLVESGGGLVQPGGSLRLSCAASGFSLSSYWMSWVRQAPGKGLEWIGIIFTGGSTYYASWAKGRFTISRHNSKNTLYLQMNSLRAEDTAVYYCARTSYYDVSGWGVGRLDLWGQGTLVTVSS
VL: DIQMTQSPSTLSASVGDRVTITCQSSQSVYDNNWLGWYQQKPGKAPKLLIYSASTLASGVPSRFSGSGSGTEFTLTISSLQPDDFATYYCAGGYSGNIFAFGQGTKLEILR
B4: binds (SARS-CoV-2受体结合区RBD-His蛋白 [1]).

B5: 兔源单克隆抗体3F4 (antibody, V domains shown)
VH: QSVKESGGRLVTPGTPLTLTCTVSGFSLSSYWMSWVRQAPGKGLEWIGIIFTGGSTYYASWAKGRFTISKTSTTVDLKITSPTTEDTATYFCARTSYYDVSGWGVGRLDLWGQGTLVTVSS
VL: DPMLTQTASSVSAAVGGTVTISCQSSQSVYDNNWLGWYQQKPGQPPKLLIYSASTLASGVPSRFKGSGSGTQFTLTISDLECDDAATYYCAGGYSGNIFAFGGGTELEIL
notes: also called r3F4
In the case of B5, the Kd (SARS-CoV-2受体结合区RBD-His蛋白 [2]) is reported as 8.79 nM, the “IC50 (SARS-CoV2 VSVpp假病毒感染模型中和, BHK21-hACE2细胞)” value [3] is reported as 1.95 ng/mL and the EC50 (SARS-CoV-2受体结合区RBD-mFc) is reported as 14.4 ng/mL.
